Laboratory results published in patent US20260176378A1 (DYAX, published 2026).

Molecular target: T1, human plasma kallikrein (human, UniProt P03952 20-390; P03952 391-638)
T1 construct: two disulfide-linked chains; NP_000883.2; also called pKal; hpKal
Assay: ELISA, biotinylated pKal signal over streptavidin background

T1 sequence (P03952 20-390 limits assumed, chain 1 of 2): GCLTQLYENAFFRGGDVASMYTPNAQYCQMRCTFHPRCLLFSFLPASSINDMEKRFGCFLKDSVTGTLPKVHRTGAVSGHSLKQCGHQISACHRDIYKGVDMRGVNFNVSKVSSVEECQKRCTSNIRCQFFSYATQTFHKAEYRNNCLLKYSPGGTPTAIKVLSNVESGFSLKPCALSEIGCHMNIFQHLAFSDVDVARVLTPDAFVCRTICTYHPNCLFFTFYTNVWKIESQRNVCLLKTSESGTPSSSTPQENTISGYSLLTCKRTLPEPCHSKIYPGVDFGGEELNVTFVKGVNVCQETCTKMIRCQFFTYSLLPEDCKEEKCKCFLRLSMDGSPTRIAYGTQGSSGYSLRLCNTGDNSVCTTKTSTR
T1 sequence (P03952 391-638 limits assumed, chain 2 of 2): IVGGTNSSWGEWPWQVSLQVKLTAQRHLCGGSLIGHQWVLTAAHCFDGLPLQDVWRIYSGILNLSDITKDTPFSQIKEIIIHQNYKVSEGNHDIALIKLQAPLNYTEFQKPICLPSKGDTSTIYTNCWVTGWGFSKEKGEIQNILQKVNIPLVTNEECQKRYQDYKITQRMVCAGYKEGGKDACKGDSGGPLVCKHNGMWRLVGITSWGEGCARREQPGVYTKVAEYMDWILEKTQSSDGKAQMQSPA

ELISA (T/B) | Binder
40 | M145-D11 (Fab, V domains shown, also called 559A-M145-D11 (sFab); 559A-M0145-D11) VH: EVQLLESGGGLVQPGGSLRLSCAASGFTFSHYRMSWVRQAPGKGLEWVSSIYPSGGRTVYADSVKGRFTISRDNSKNTLYLQMNSLRAEDTAVYYCAKDKFEWRLLFRGIGNDAFDIWGQGTMVTVSS VL: QSVLTQPPSVSVSPGQTASITCSGDKLGDKYTSWYQQRPGQSPVLVIYQDIKRPSGIPERFSGSNSGNTATLTISGTQAMDEADYYCQAWDSPNARVFGSGTKVTVL
6.2 | M145-D01 (Fab, V domains shown) VH: EVQLLESGGGLVQPGGSLRLSCAASGFTFSYYHMSWVRQAPGKGLEWVSVISPSGGSTKYADSVKGRFTISRDNSKNTLYLQMNSLRAEDTAVYYCARGGSSDYAWGSYRRPYYFDYWGQGTLVTVSS VL: DIQMTQSPATLSLSPGERATLSCRASQSVSSYLAWYQQKPGQAPRLLIYDASNRATGIPARFSGSGSGTDFTLTISSLEPEDFAVYYCQQRSNWPRGFTFGPGTKVDIK
49.6 | M146-E12 (Fab, V domains shown, claim 26 (viii) gives VL 265 and VH 266 instead) VH: EVQLLESGGGLVQPGGSLRLSCAASGFTFSRYIMHWVRQAPGKGLEWVSSISPSGGLTSYADSVKGRFTISRDNSKNTLYLQMNSLRAEDTAVYYCAREFENAYHYYYYGMDVWGQGTTVTVSS VL: DIQMTQSPSSLSASVGDRVTITCRASGDIGNALGWYQQKPGKAPRLLISDASTLQSGVPLRFSGSGSGTEFTLTISSLQPEDFATYYCLQGYNYPRTFGQGTKLEIR
29.9 | M142-H08 (antibody, V domains shown, tested as Fab (Ki,app) and as human IgG (SPR); the IgG is cleaved in HC CDR3 after WFR) VH: EVQLLESGGGLVQPGGSLRLSCAASGFTFSAYSMIWVRQAPGKGLEWVSYIRPSGGRTTYADSVKGRFTISRDNSKNTLYLQMNSLRAEDTAVYYCARGGLLLWFRELKSNYFDYWGQGTLVTVSS VL: DIQMTQSPSSLSAFVGDRVTITCRASQPIDNYLNWYHQKPGKAPKLLIYAASRLQSGVPSRLSGSGFGTDFTLTISSLQPEDFGNYYCQQSYTVPYTFGGGTKVEIR

More lines, now with the values behind:

Binder | ELISA (T/B)
M76-D01 (Fab, V domains shown) VH: EVQLLESGGGLVQPGGSLRLSCAASGFTFSFYAMHWVRQAPGKGLEWVSGIVPSGGRTHYADSVKGRFTISRDNSKNTLYLQMNSLRAEDTAVYYCATDSSGSPNPLFDYWGQGTLVTVSS VL: DIVMTQTPPSLPVNPGEPASISCRSSQSLSDDGNTYLDWYLQRPGQSPQLLIHTLSYRASGVPDRFSGSGSGTDFTLKISRVEAEDVGVYYCMQGTHWPPTFGQGTKVEIK | 11.2
M137-E12 (Fab, V domains shown) VH: EVQLLESGGGLVQPGGSLRLSCAASGFTFSDYRMQWVRQAPGKGLEWVSVIVPSGGNTMYADSVKGRFTISRDNSKNTLYLQMNSLRAEDTAVYYCARGGPGSSIAARRAPTGYYGMDVWGQGTTVTVSS VL: QSVLIQPPSVSGIPGQRVTISCSGNNSNFGSNTVTWYQQLPGTAPKLLIYSDSRRPSGVPDRFSGSRSDTSASLAISGLQSEDEAEYHCAAWDDSLNGVFGGGTKLTVL | 4.5
M7-B04 (Fab, V domains shown) VH: EVQLLESGGGLVQPGGSLRLSCAASGFTFSWYSMVWVRQAPGKGLEWVSSISPSGGLTNYADSVKGRFTISRDNSKNTLYLQMNSLRAEDTAVYYCARHTAARPFYYYYMDVWGKGTTVTVSS VL: QSALTQPASVSGSPGQSITISCTGTNSDVGNYNLVSWYQQHPGEAPKLLIYEVNKRPSGVSNRFSGSKSGNTASLTISGLQAEDEADYLCCSYAGNRNFYVFGAGTKVTVL | 4.1
M110-C12 (Fab, V domains shown) VH: EVQLLESGGGLVQPGGSLRLSCAASGFTFSYYEMDWVRQAPGKGLEWVSGISSSGGHTAYADSVKGRFTISRDNSKNTLYLQMNSLRAEDTATYYCARERRSSSRARYYYGMDVWGQGTTVTVSS VL: DIQMTQSPLSLSVTPGEPASISCRSSLSLLHSNGYNYLDWYVQRPGQSPQLLMYLSSTRASGVPDRFSGSGSGTDFTLEISRVEAEDVGVYYCMQPLETPPTFGGGTKVEIK | 2.4
